For 1 substance, stoichiometry N (protomers per pentamer) results are on record in article doi:10.1101/2025.03.31.646278.

For the assay, the target named is HPV16 L1 pentamer (deletion construct of the major capsid protein L1) (human papillomavirus type 16). Nature of the assay: cryo-EM structure.

“HPV16 L1 pentamer (deletion construct of the major capsid protein L1) (domain or fragment)” displayed a stoichiometry N (protomers per pentamer) of 5.
